Assay results published in publication PMC5346706, “Anti-metastatic effect of the TM4SF5-specific peptide vaccine and humanized monoclonal antibody on colon cancer in a mouse lung metastasis model” (Oncotarget, 2016).

Key:
[1] = biological target: cyclic peptide hTM4SF5EC2-C (human); experiment: SPR; biotinylated peptide immobilized on a streptavidin chip, increasing amounts of antibody applied; SR7500DC Reichert SPR system
[2] = biological target: T1, Myc-tagged recombinant human TM4SF5 protein (Homo sapiens (Huh-7 cDNA), UniProt O14894); experiment: western blotting; whole cell lysates of HEK 293F-EV and HEK 293F-TM4SF5 cells resolved on SDS-PAGE and probed with the antibody; conditions: one partner purified
T1 construct: human transmembrane 4 superfamily member 5 protein (TM4SF5); cDNA amplified from Huh-7 mRNA with the printed primers (5' primer holds the ATG); also called Myc-tagged hTM4SF5; hTM4SF5
T1 sequence (O14894 whole entry): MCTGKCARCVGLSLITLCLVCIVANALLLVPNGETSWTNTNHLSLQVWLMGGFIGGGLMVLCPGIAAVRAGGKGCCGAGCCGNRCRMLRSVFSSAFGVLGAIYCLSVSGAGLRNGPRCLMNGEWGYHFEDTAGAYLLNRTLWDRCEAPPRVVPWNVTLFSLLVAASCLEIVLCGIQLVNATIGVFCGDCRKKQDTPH

Kd [1]: < 0.48 nM
koff [1]: < 1e-05 s⁻¹
binding result [2]: binds
B1: mouse anti-TM4SF5 monoclonal antibody mEC2-C (antibody, V domains shown)
VH: QVQLEESGPGLVAPSQSLSIICTVSGFSLTSYGVTWVRQPPGKGLEWLGVIWSDGSTNYQSALISRLTISRDNSKSQAFLKLNSLQTDDTATYYCARPSNYYYFDYWGQGTTLTVSS
VL: DIVMTQSPSSLAVSAGERVTLSCKSSQSLFDRRTRKTYLAWYQQKPGQSPKLLISWASTRESGVPDRFTGSGSGTDFTLTISSVQAEDLAVYYCKQSYNLFTFGGGTKLEIK
notes: VH of mEC2-C (mouse VH2 subtype); mouse IgG3 heavy chain constant region; VL of mEC2-C (mouse Vk8 subtype); mouse kappa light chain constant region (cloned with kappa chain primers); Mouse IgG3, kappa; also called mEC2-2; source: hybridoma, purified from ascitic fluid (Protein A column)
